Measurements as given in article PMC6151440.

Experiments:
Test in all cases: NMR
Settings in all cases: folded, free wild-type ubiquitin
Asp21 = Asp21 (UniProt position 21, EVEPSDTIENV)
Asp32 = Asp32 (UniProt position 32, KAKIQDKEGIP)
Asp39 = Asp39 (UniProt position 39, EGIPPDQQRLI)
Asp58 = Asp58 (UniProt position 58, GRTLSDYNIQK)
Glu16 = Glu16 (UniProt position 16, KTITLEVEPSD)
Glu18 = Glu18 (UniProt position 18, ITLEVEPSDTI)
Glu34 = Glu34 (UniProt position 34, KIQDKEGIPPD)
Glu51 = Glu51 (UniProt position 51, AGKQLEDGRTL)
Glu64 = Glu64 (UniProt position 64, YNIQKESTLHL)
[1] = 298 K, not stated (20 mM d-Tris-HCl buffer, no added salt stated), 20 mM d-Tris-HCl, 1-1.5 mM
[2] = 303 K, 100 mM KCl, cited from earlier work

Ubiquitin (wild type) (not stated (Homo sapiens inferred))
pKa (Asp21; [1]): 2.98 ± 0.03 | pKa (Asp21; [2]): 3.1 | pKa (Asp32; [1]): 3.68 ± 0.03 | pKa (Asp32; [2]): 3.8 | pKa (Asp39; [1]): 3.52 ± 0.02 | pKa (Asp39; [2]): 3.6 | pKa (Asp58; [1]): 3.47 ± 0.02 | pKa (Asp58; [2]): 3.7 | pKa (Glu16; [1]): 4.07 ± 0.02 | pKa (Glu16; [2]): 3.9 | pKa (Glu18; [1]): 4.26 ± 0.03 | pKa (Glu18; [2]): 4.3 | pKa (Glu34; [1]): 4.16 ± 0.03 | pKa (Glu34; [2]): 4.5 | pKa (Glu51; [1]): 3.69 ± 0.02 | pKa (Glu51; [2]): 3.8 | pKa (Glu64; [1]): 4.26 ± 0.02 | pKa (Glu64; [2]): 4.5
